Among the data in paper PMC10545799 are stoichiometry N values, retold here.

What is called stoichiometry N is a count of units in the complex or per binding partner.

Assay [1] addresses dsc-Agg5AB (chimeric donor strand complemented construct of minor pilin subunit Agg3B and major pilin subunit Agg5A) (enteroaggregative E. coli). Nature of the assay: SAXS; engineered subunit samples (monomer fractions of the gel filtration) in solution, 10 °C, dilutions 1:1 and 1:2; molecular weight and aggregation number from Guinier analysis; self-association. (Size exclusion chromatography separates by hydrodynamic size, large species first.)

Assay [2] concerns the target dsc-Agg5A (donor strand complemented major pilin subunit Agg5A of AAF/V) (enteroaggregative E. coli). The description is as above.

The substance “dsc-Agg5AB (chimeric donor strand complemented construct of minor pilin subunit Agg3B and major pilin subunit Agg5A)” registered a stoichiometry N in assay [1] of 6.8.

“dsc-Agg5A (donor strand complemented major pilin subunit Agg5A of AAF/V) (domain or fragment)”: the stoichiometry N in assay [2] came out at 2.
